Test results as given in US20250325682A1, “FKBP52-DERIVED THERAPEUTIC PEPTIDES THAT INHIBIT PATHOLOGICAL TAU AGGREGATION FOR THERAPEUTIC PURPOSES” (priority 2024, published 2025).
Ends that are not written are not given here.

B1: YARAAARQARA-P50 (peptide)
chain: YARAAARQARAAKPNEGAIVEVALEGYYKDKLFDQRELRFEIGEGENLDLPYGLERAIQRM

Assays:
Tau-P301L = molecular target: T1, Tau-P301L (Homo sapiens, UniProt P10636, P618L); assay: Thioflavine T fluorescence assay of seeded Tau-P301L aggregation; assay type: biochemical; conditions: for Tau-P301L aggregate formation (ThT fluorescence intensity): Tau-P301L 5 μM with Tau seeds, peptide 50 μM, fluorescence at 24 h, ±SEM, n=3, remaining aggregation
T1 construct: made in house; host or cells: Escherichia coli BL21
Source text: Protein purification. Recombinant wild-type Tau and Tan with P301L mutation proteins was expressed in Escherichia coli (E. coli, BL21) and purified as described; Goedert M, Jakes R (1990) Expression of separate isoforms of human tau protein: correlation with the tau pattern in brain and effects on tubulin polymerization. EMBO J 9, 4225-4230. Combs B, Tiernan C T, Hamel C, Kanaan N M (2017) Production of recombinant tau oligomers in vitro. Methods Cell Biol 141, 45-64.
Effect of P35 on Tau-P30IL aggregation. Tau-P301L protein is used in all aggregation assays. Tau seeds are prepared during a first polymerization: 15UM of monomeric Tau-P301L was incubated at 37° C. in polymerization buffer (PI-buffer): NaH2PO4 25 mM, Na2HPO4 25 mM, NaCl 25 mM, EDTA SmM PH 6,6 with heparin 7.5 μM, Thioflavine-T 50 μM, and Dithiothreitol (DTT) 0.3 mM in a final volume of 100 μl. Fluorescence was monitored every 30 minutes during 25 hours at 480 nm (excitation at 450 nm) using Perkin-Elmer Endvision spectrophotometer. After polymerization, samples (100 μl) were centrifuged at 20,000 g for 1 hour at 4° C. The pellets were resuspended in 100 μl of PI-buffer and sonicated (Branson sonicator) at 40%, 3 times of 1 second, in order to obtain small pre-formed Tau fibrils used as seeds for the second polymerization assay. A volume of 18% of Tau seeds was pre-incubated in the same buffer of the first polymerization, with or without polypeptides, during 1 h at 37° C. Subsequently, 5 μM of monomeric Tau-P301L was added and fluorescence was monitored in the same conditions.

[1] = tested on: hTau-P301S mouse DRG neurons; assay: Western blot of sarkosyl-insoluble Tau fraction of peptide-treated DRG neurons; assay type: cell-based; conditions: peptide 200 nM in cell medium for 15 days, compared to scramble control
Protocol: DRG culture and western-blot analyses. DRG neurons were collected from hTau-P301S mice spinal cords as described by Sleigh and dissociated with collagenase (ThermoFisher Scientific, 17100-017) 2900 U/mL during 90 min followed by 0.1% trypsin (Life Technologies, 15090-046) 3 mM EDTA containing DNaseI (50 μg/mL; Sigma-Aldrich, 04536282001) for 5 min; Sleigh J N, Weir G A, Schiavo G, A simple, step-by-step dissection protocol for the rapid isolation of mouse dorsal root ganglia. BMC RES NOTES, 2016, 9, 82.
Cell treatment was stopped using 1×PBS (VWR, X0515-500) supplemented with 2% horse serum (ThermoFisher Scientific, 16050-122), and DRG neurons were dissociated with a Pasteur pipette. Cells were then centrifuged for 5 min at 1,300 g and the pellet was resuspended in DMEM (Fisher Scientific, 12077549) with 9% fetal bovine serum. After filtration on a 0.40 μm filter followed by centrifugation 5 min at 1,300 g. the pellet was resuspended in neurobasal medium complemented with B27 (50×), L-glutamine (100×) (Life Technologies, 11530536 and 25030024 respectively), NGF 2.5 S (27 ng/ml; ThermoFisher, 13257-019) and distributed in 2 wells of a 6-well culture plate. Cell cultures were maintained for 15 days in vitro (DIV) and the cell medium complemented with mitomycine C (Sigma-Aldrich, M4287) and 5-Fluorodeoxy-uridine (Sigma-Aldrich, F0503) was changed twice a week. Cells were harvested by scraping, centrifuged for 10 min at 200 g and the pellet was homogenized using PotterElvehjem 18 in cold extraction buffer (50 mM Tris-HCl, pH 7.5, 100 mM NaCl, 0.5% SDS, 2 mM CaCl2, 2 mM MgCl2) supplemented with a cocktail of protease and phosphatase inhibitors (Roche, 11836145001). […] Each sample was analyzed on a 10% SDS Page gel and transferred onto iBlot™ Gel Transfer membranes (Invitrogen, IB23001, IB24002). […] Images were recorded with the GeneGnome5 (Syngene). Quantification was performed using Genetools analysis software (Syngene).
DRGs treatment with peptides. […] After cell lysis, lysates were then analyzed by western-blot as described in “DRG culture and western-blot analyses”.

T1 sequence (P10636 1-441 isoform P10636-8 P301L): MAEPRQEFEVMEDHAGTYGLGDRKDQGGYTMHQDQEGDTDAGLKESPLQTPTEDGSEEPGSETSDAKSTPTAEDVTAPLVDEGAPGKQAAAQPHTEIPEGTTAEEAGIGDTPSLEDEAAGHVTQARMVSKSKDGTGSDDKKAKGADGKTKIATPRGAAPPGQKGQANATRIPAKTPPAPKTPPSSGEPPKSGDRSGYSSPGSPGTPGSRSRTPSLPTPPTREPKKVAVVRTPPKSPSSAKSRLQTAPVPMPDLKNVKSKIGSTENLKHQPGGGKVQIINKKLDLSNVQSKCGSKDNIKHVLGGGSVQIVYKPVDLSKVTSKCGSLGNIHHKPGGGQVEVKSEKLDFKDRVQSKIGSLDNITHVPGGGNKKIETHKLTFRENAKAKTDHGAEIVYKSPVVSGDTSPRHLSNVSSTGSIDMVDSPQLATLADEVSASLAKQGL

| Molecule | Tau-P301L aggregate formation (ThT fluorescence intensity) (Tau-P301L) [%] | insoluble Tau forms / Tau-P301S aggregation (western blot, sarkosyl-insoluble fraction) [1] | also measured |
| --- | --- | --- | --- |
| AKPNEGAIVEVALEGYYKDKLFDQRELRFEIGEGE (Ac-AKPNEGAIVEVALEGYYKDKLFDQRELRFEIGEGE; not fully specified (C-terminus); listed as Homo sapiens) [P35] | 80.6 |  |  |
| AKPNEGAIVEVALEGYYKDKLFDQRELRFEIGEGENLDLPYGLERAIQRM (listed as Homo sapiens) [P50] |  |  | effect on Tau-P301L aggregation in vitro (in words) (Tau-P301L; in vitro incubation of Tau-P301L with peptide, data not shown): comparable effects than P35 |
| IRFKVLEGLYGEVDEAKEGNEAKAEGLQEYPDFIR [P35sc, reference compound] | 91.4 |  |  |
| YARAAARQARA-P35 (YARAAARQARAAKPNEGAIVEVALEGYYKDKLFDQRELRFEIGEGE) [YARA-P35] |  | tends to show a decrease of Tau-P301S aggregation |  |
| B1 |  | decrease of insoluble Tau forms | insoluble Tau forms / Tau-P301S aggregation (western blot, sarkosyl-insoluble fraction) ([1]; listed as YARA-PSO): tends to show a decrease of Tau-P301S aggregation |
